# Test: yeast display, Sf9 membrane polyspecificity reagent, FACS + sequencing; frameworks hold sequencing errors
# Procedure, shortened: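 A synthetic nanobody library was expressed on Saccharomyces cerevisiae BJ5465 by galactose induction for 36–48 hours. The library was stained for 1 hour at 4 °C with 10% biotinylated, detergent-solubilized Sf9 membrane reagent and enriched with streptavidin microbeads before FACS. Low and high (top ~1%) gates were set on anti-HA fluorescence for expression and streptavidin fluorescence for reagent binding, and each polyreactivity label reflects the gate of origin.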
row,Sequence,polyreactivity (PSR sort gate)
1,QVQLVESAGGLVQAGGSLRLSCAPSGRIFGRYAMGWYRHAPGKERELVAAISFNGGSTSYADSVNGRFTISRDNAKNTVYLQMNTLKTEYTAVYYCAAKYRGFNYWGQGTQVTVSS,high polyreactivity
2,QVQLVESAGGLVQAGGSLRLSCAPSGRIFLTNAMGWYRQAPGKERELVAAITSGGSTYYADSVKGRFTISRDNAKNTVYLQMNSLKPEDTAVYYCNADTDRYWPYEYDYWGQGTQVTVSS,low polyreactivity
3,QVQLVESAGGLVQAGGSLRLSCDASGRIFTIYAMGWYSQAPGKERELVAAIRSSGDRTYYADSVKGRFTISRDNAKNTVYLQMNSQKPEDTAVYYCAARTRGGYYWGQGTQVTVSS,high polyreactivity
4,QVQLVESAGGLVQAGGSLRLSCDASGSILDSNAMGWYRQAHGKERELVAAITSGGSTYYADSVKGRFTISRDNAKNTVYLQMNSLKPEDTAVYYCAAVDIYKYYQYYAFPYYRYDSWGQGTQVTVSS,low polyreactivity
5,QVQLVESAGGLVQAGGSLRLSCDASGSTFVINAMGWYRPAPGKERELVAAISKSGGRTYYADSVKGRFTISRDNAKNTVYLQMNSLKPEDTAVYYCAAVSQRTRYGYWGQGTQVTVSS,high polyreactivity
6,QVQLVESAGGLVQAGGSLRLSCHASGLTVRTYDMGWYRQEPGKERELVAAITTGGSTYYADSVKGRFSISRDNAKNTVYLQMNSLKPEDTAVYYCAADFIRYINRLLYDFWGQGTQVTVSS,low polyreactivity
7,QVQLVESAGGLVQAGGSLRLSGSASGIIIASNGMGWYRQPPGKERELVAAISSGGSTNYADSVKGRFTISRDNAKNTVYLQMNSLKPEDTAVYYCADDRWYREYDYWGQGTQVTVSS,low polyreactivity
8,QVQLVESAGGLVQAGGSLSIICAASGFTFSPYTMGWYRKAPGKERELVAAINRRGVSTYYADSVKGRFTISRDNEKNTVYLQMNSLKPEDTAVYYCAAEWYYQYSIYRYGYWGQGTQVTVSS,low polyreactivity
9,QVQLVESAGGLVQAGGSLSLICAASGSTFVVNALGWYRQAPGKERELVAAITTSGGSTYYADSVKGRFTISRDNAKNTVYLQMNSLKPEDTAVYYCAAETWGYYGYGVDYDYWGQGTQVTVSS,high polyreactivity
10,QVQLVESAGGLVQAGGSLSLSCAANGFTFTYYTMGWYRQAPGKERELVAAITENGGSTYYADSVKGRFTISRDNAKNTVYLQMNSLKPEDTAVYYCNARVWDYGGHGYDYWGQGTQVTVSS,low polyreactivity
11,QVQLVESAGGLVQAGGSLSLSCAASGRIFNLYAMGWYRKAPGKERELVAAIRGRGTSTYYADSVKGRFTISRDNAKNTVYLQMNSLKPEDTAVYYCAREGGYGPTLQDTSRYEYWGQGTQVTVSS,low polyreactivity
12,QVQLVESAGGLVQAGGSLSLSCAASGRTFVIYAMGSDRQAPGKERELVAGIDSGTSTYADSVKGRFTISRDNAKNTVYLQMNSLKPEDTAVYYCAADFAPDGAGWYIPGDYDSWGQGTQVTVSS,low polyreactivity
13,QVQLVESAGGLVQAGGSLSLSCAASGRTFVIYAMGWYRKAPGKERELVAGIDSGTSTYADSVKGRFTISRDNAKNTVYLQMNSLKPEDTAVYYCAADFAPDGAGWYIPGDYDSWGQGTQVTVSS,low polyreactivity
14,QVQLVESAGGLVQAGGSLSLSCAASGSTFAGYVMGWYRQAPGKERELVAAISRSGGSTYYADSVKGRFTISRDNAKNTVYLQMNSLKPEDTAVYYCAARNSPGLPGDYWGQGTQVTVSS,high polyreactivity
15,QVQLVESAGGLVQAGVSLRLSCAASGRTFVGNAMGGYRQAPGKERELVADITWSGDITYYADSVKGRFTIARDTAKNTVYLQMISLKPEDTAVYYCAADYHRRLTDYDYWGQGTQVTVSS,low polyreactivity
16,QVQLVESAGGLVQAVGSLRLSCAASGRICGIYAMGWYRQAPGKERELVAAISFIGGRTYYADSVKGRFTISRDNAKNTVYLQMNSLKPEDTAVYDCAARTVPSSRREYWGQGTQVTVSS,high polyreactivity

row,Sequence,polyreactivity (PSR sort gate)
1,QVQLVESAGGLVQEGGRLRLSCAASGITLGAYAMGRYRQAPGKEREMVARIRIGGSKYYADSVKGRFTISRDNEKNTVYLQMNSLKPEDTAVYYCATRWQEYAGDYWGDYWGQGTHVTVSS,low polyreactivity
2,QVQLVESAGRLVQAGGSLRLSCAASGSTFYSYAMGWYRQAPGKEREFVAAITYSDGITYYADSVKGRFTISRDNAKNTVYLQMNSLKPEDTAVYYCAKAPIWGVTRKFDYWGQGNQVTVSS,high polyreactivity
3,QVQLVESAGRLVQAGGSLRLSCAPSGSIFSHNAMGWYRPAPGKERELVAAISRSGGSTYYADSVKGRFTISRDNAKNTVYLQMNSQKPEDTAVYYCNALGRISNHTLYDYWGQGTQVTVSS,low polyreactivity
4,QVQLVESAGVLVQAGGILRLSFAASGINFPYYAMGWYRKAPGKERELVAAISSSGGSSYYADSVKGRFTISRDNAKNTVYLKLNILKPEDTAVYYCAAHRYINYEYWGQGTQLTVSS,high polyreactivity
5,QVQLVESCGCLVQAVGSLRLSCAASGRIFGWYAMGWDRQAPVKERELVAAISSARRTYYADSVKGRFTISRDNAKNSVYLQMNSLKPEDTAVSYCAAYYYNDRMYYWGQGNQVTVSS,high polyreactivity
6,QVQLVESCGGLVQAGCSLRLSCAASGRIFSTNAMGWYRPAPGKERELVAAISSSGSRTYLADSVKGRFTISRDNAKNTVYLQMNSLKPEDTAVYFCNALRNYHHYEYDYWGQGTQVTVSS,high polyreactivity
7,QVQLVESCGGLVQAGGSHRLSCAASGRIFGVYVMGWYRQAPGKERELVAAISWSCSHTYYADSVKGRYTISRDNAKNTVYLQMNSLKPEDTAVYYCNADSYPDYTGPGLDWYDYWGHGTQVTVSS,low polyreactivity
8,QVQLVESCGGLVQAGGSLLLSCAASGGTFCDYAMVWYRQAPGKEREFVASITRSVSDTYYADSVKGRFTISRDNAKNTVYLQINSLKPEDTAVYYCKADRWYPWRSIMDYWGQGTQVSVSS,low polyreactivity
9,QVQLVESCGGLVQAGGSLRLSCAASGFIFSQNAMGWYIQAPGKEREIVAVISARGGRTYYADSVKGRFTISRDNAKNTVYLQMNSLKPEDTAVYDCARRDFWWSRRIFGYWGQGTQVTVSS,high polyreactivity
10,QVQLVESCGGLVQAGGSLRLSCAASGFTFPYYTMGWYRQAPGKERELVATITGGGSTNYADSVKGRFTISRDNAKNTVYLQKNSLKPEDTAVYYCAAKRWSGYGYYGWYDYWGQGTQVTVSS,high polyreactivity
11,QVQLVESCGGLVQAGGSLRLSCAASGFTFRNYVMGWYRQAPGKERELVAAISSTGGSTYYADSVKGRFTISRDNAKNTVYLQMNSLKPEDTAVYYCAARYVVQWPRYGFDYWGQGTQVTVSS,high polyreactivity
12,QVQLVESCGGLVQAGGSLRLSCAASGLIFRPNAMGWYRQAPAKERELVAAISGGGGSTYYADSVKGRFTISRDNAKNTVYLQMKSLKPEDTAVYYCNARKLVNRYPVIGVETYDYWGQGTQVTVSS,low polyreactivity
13,QVQLVESCGGLVQAGGSLRLSCAASGLTFYRYAMGWYRQAPGKERELVAAISSADRTYYADSVKGRFTISRDNAKNTVYLQMNSLKPEDTAVYYCAARANYFGWTKSYYYWGQGTQVNVSS,high polyreactivity
14,QVQLVESCGGLVQAGGSLRLSCAASGLTYRYYAMGWYRKAPGKERELVAAITSSGTSTYYADSVKGRFTISRDNAKNTVSLQMNSLKAEDTAVSYCAVRQSQKYGLFYYGGQGTQVTVSS,high polyreactivity
15,QVQLVESCGGLVQAGGSLRLSCAASGRNIWDYGMVWYRQAPGKERELVAVITWGGGSTYYADSVKGRFTISRDNAMNTVYLQMNSLKPEDSAVYYCAKEYHYYYWGQGTQVTVSS,low polyreactivity
16,QVQLVESCGGLVQAGGSLRLSCAASGRTFRYYAMGWYRQAPWKERELVAAIRRGGSTTYADSVKGRFTISRDNAKNTVYLQMNSLKPEDTAVYYCAARYPGTRGDGYWGQGTQVTVSS,high polyreactivity
